Results taken from publication PMC8565929 (eLife, 2021).

B1: Swi3-3FLAG (natural protein, S. pombe, UniProt O14350 1-181, looked up)
chain: MSTAASDSGVEKLVEENKREEVKKNEEEKEFDLGLEENPDSVKKPRKRLAKFDEERLISENGIPKLRKMMRKVKLKGKGHEAKDLKQLLGMYHIWTHELYPRATFDDSISYLKTLGKHRSVKVRRRGWINEIAVENGSDSNASLFTGPSSNSLVNLTSGDPYVQDTADDAFVAQDNDTQLE
B2: Recombinant his-tagged FL-Hst4 (pET28a) (natural protein, S. pombe, UniProt Q9UR39 1-415, looked up)
chain: MKVEEHVPLIQESRKRKCQSSENASKRQQLLSKLPLRLHTGNENVDLSPLVSAIRKAKRIVVVTGAGISCDAGIPDFRSSEGLFSSLRAEYKLNCSGKELFDGSVYRDLKSVNIFHAMIRKLHMLSNNARPTDFHLFLSQLAQESKLLRLYTQNIDFLETRLEGLQTCIPLPQSAPWPTTIPLHGTLEVVSCTRCSFLKKFNPDIFDRNGVTVCPDCKTENEVRRIAGKRSVIEGCLRPRIVLYNEIHPDSESIGSVCSQDLKSRPDCLIVAGTSCKIPGVKRIIKEMSNCVHKQKGNVIWLNYDEPTKDFLNLCDLVVQGDLQIAIRRLKPLLDAPSWKLKSHSAKRTSKQKSSEQTKITSSTKITKAIGLNTKSNDSSKKDNTSFQLHQVLNSIEIPKVEIKQEVEYATPSPL

Key:
Assay in all cases: pull-down
[1] = target: B2
[2] = target: Swi1-3FLAG (S. pombe, UniProt Q9UUM2 1-971)
Sequence of Swi1-3FLAG (Q9UUM2 whole entry): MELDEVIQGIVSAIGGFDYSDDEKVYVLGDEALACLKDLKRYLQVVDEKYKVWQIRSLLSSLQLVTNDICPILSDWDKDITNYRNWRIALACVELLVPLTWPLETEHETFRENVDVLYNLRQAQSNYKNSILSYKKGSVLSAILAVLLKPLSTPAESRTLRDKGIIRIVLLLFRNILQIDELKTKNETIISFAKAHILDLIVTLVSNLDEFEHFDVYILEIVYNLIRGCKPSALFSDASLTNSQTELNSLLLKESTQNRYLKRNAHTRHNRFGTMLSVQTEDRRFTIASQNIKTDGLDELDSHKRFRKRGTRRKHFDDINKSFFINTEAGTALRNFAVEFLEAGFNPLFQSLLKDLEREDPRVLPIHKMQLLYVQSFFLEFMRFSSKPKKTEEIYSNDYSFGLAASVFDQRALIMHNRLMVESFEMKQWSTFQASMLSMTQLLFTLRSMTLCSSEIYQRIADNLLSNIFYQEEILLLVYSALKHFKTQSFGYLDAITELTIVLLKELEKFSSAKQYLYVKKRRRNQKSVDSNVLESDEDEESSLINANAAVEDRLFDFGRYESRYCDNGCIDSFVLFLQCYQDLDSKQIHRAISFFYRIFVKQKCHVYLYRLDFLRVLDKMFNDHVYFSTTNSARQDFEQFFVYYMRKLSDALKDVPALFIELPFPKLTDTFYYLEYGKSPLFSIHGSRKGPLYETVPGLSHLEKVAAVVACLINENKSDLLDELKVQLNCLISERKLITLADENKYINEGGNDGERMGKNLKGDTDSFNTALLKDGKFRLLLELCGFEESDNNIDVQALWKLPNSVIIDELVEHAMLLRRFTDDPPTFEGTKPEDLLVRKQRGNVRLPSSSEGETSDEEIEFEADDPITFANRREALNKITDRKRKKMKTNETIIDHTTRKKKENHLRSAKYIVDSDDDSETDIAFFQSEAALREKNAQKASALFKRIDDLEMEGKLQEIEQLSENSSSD

[3] = target: DDK (Hsk1-HA with Dfp1-myc) (S. pombe, UniProt P50582 1-507; O59836 1-545)
Sequence of DDK (Hsk1-HA with Dfp1-myc) (P50582 whole entry, chain 1 of 2): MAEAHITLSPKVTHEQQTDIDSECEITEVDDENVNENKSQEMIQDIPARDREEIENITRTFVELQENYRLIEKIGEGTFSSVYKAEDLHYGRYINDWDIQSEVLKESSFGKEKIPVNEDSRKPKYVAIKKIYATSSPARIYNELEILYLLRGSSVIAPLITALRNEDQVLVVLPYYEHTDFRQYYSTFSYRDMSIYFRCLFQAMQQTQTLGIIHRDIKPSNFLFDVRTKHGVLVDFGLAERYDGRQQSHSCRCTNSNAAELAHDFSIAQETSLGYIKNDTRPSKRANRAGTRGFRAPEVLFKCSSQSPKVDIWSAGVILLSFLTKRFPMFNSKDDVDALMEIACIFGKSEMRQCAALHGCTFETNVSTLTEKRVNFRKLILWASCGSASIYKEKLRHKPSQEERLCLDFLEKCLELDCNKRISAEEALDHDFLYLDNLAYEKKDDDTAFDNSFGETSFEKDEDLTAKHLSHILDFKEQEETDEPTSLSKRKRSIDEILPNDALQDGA
Sequence of DDK (Hsk1-HA with Dfp1-myc) (O59836 whole entry, chain 2 of 2): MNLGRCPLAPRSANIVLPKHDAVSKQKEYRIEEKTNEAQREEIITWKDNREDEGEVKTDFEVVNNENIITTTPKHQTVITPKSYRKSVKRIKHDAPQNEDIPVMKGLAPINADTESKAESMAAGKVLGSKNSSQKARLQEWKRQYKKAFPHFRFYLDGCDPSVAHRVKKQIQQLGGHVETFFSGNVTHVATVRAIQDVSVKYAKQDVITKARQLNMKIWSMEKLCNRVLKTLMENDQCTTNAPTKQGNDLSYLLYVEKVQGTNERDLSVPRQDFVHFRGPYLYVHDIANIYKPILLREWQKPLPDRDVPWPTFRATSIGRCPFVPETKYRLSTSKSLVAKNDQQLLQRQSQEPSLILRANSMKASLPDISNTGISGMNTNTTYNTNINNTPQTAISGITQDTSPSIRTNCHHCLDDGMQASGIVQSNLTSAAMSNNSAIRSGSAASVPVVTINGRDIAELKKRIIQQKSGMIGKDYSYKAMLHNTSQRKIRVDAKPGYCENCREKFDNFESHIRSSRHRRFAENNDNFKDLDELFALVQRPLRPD

binding result [1]	binding result [2]	binding result [3]	Binder
binds	–	–	B1
–	binds	binds	B2
